# Experimental data reported in paper PMC4569848 (Nature Communications, 2015).
# Changes are numbered by the printed parent chain. Names and notes keep the numbering of the source.
# T1: GST-clathrin 1–494 (human, UniProt Q00610 1-494)
# T1 construct: clathrin, human, residues 1-494, in pGEX-6P1; source: E. coli BL21, purified (glutathione-Sepharose 4B, eluted with GSH); not shown: GST, N-terminal, kept
# T1 sequence (looked up): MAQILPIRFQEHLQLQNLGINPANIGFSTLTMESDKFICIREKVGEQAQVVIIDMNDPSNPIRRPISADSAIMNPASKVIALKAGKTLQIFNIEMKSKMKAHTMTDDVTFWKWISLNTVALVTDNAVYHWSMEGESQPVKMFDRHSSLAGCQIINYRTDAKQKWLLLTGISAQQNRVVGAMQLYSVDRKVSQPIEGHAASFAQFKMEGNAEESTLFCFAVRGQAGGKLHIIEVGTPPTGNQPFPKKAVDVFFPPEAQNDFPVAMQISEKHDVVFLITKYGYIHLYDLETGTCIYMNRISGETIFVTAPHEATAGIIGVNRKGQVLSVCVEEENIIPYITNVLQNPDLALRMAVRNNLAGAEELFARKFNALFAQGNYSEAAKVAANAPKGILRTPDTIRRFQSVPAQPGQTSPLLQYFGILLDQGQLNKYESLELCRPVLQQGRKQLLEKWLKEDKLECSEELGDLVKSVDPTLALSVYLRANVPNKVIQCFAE
# B1: β-arrestin-1-D383-F2Y (natural protein, bovine, UniProt P17870 1-418, looked up)
# chain: MGDKGTRVFKKASPNGKLTVYLGKRDFVDHIDLVEPVDGVVLVDPEYLKERRVYVTLTCAFRYGREDLDVLGLTFRKDLFVANVQSFPPAPEDKKPLTRLQERLIKKLGEHAYPFTFEIPPNLPCSVTLQPGPEDTGKACGVDYEVKAFCAENLEEKIHKRNSVRLVIRKVQYAPERPGPQPTAETTRQFLMSDKPLHLEASLDKEIYYHGEPISVNVHVTNNTNKTVKKIKISVRQYADICLFNTAQYKCPVAMEEADDTVAPSSTFCKVYTLTPFLANNREKRGLALDGKLKHEDTNLASSTLLREGANREILGIIVSYKVKVKLVVSRGGLLGDLASSDVAVELPFTLMHPKPKEEPPHREVPEHETPVDTNLIELDTNYDDIVFEDFARQRLKGMKDDKEEEEDGTGSPRLNDR
# modifications: 3,5-difluorotyrosine (F2Y) at 383
# notes: β-arrestin-1, bovine, full-length cDNA in pET22b, amber codon at D383 read as F2Y; source: E. coli BL21 (DE3) with pEVOL-F2YRS and F2Y in the medium, purified (Ni-NTA, gel filtration)
# B2: β-arrestin-1-R7-F2Y (natural protein, bovine, UniProt P17870 1-418, looked up)
# chain: B1 chain with R7Y, Y383D
# modifications: 3,5-difluorotyrosine (F2Y) at 7
# notes: β-arrestin-1, bovine, full-length cDNA in pET22b, amber codon at R7 read as F2Y; source: E. coli BL21 (DE3) with pEVOL-F2YRS and F2Y in the medium, purified (Ni-NTA, gel filtration)
# B3: β-arrestin-1-F75-F2Y (natural protein, bovine, UniProt P17870 1-418, looked up)
# chain: B1 chain with F75Y, Y383D
# modifications: 3,5-difluorotyrosine (F2Y) at 75
# notes: β-arrestin-1, bovine, full-length cDNA in pET22b, amber codon at F75 read as F2Y; source: E. coli BL21 (DE3) with pEVOL-F2YRS and F2Y in the medium, purified (Ni-NTA, gel filtration)
# B4: β-arrestin-1-K107-F2Y (natural protein, bovine, UniProt P17870 1-418, looked up)
# chain: B1 chain with K107Y, Y383D
# modifications: 3,5-difluorotyrosine (F2Y) at 107
# notes: β-arrestin-1, bovine, full-length cDNA in pET22b, amber codon at K107 read as F2Y; source: E. coli BL21 (DE3) with pEVOL-F2YRS and F2Y in the medium, purified (Ni-NTA, gel filtration)
# B5: β-arrestin-1-K294-F2Y (natural protein, bovine, UniProt P17870 1-418, looked up)
# chain: B1 chain with K294Y, Y383D
# modifications: 3,5-difluorotyrosine (F2Y) at 294
# notes: β-arrestin-1, bovine, full-length cDNA in pET22b, amber codon at K294 read as F2Y; source: E. coli BL21 (DE3) with pEVOL-F2YRS and F2Y in the medium, purified (Ni-NTA, gel filtration)
# B6: β-arrestin-1-K138-F2Y (natural protein, bovine, UniProt P17870 1-418, looked up)
# chain: B1 chain with K138Y, Y383D
# modifications: 3,5-difluorotyrosine (F2Y) at 138
# notes: β-arrestin-1, bovine, full-length cDNA in pET22b, amber codon at K138 read as F2Y; source: E. coli BL21 (DE3) with pEVOL-F2YRS and F2Y in the medium, purified (Ni-NTA, gel filtration)
# B7: β-arrestin-1-K11-F2Y (natural protein, bovine, UniProt P17870 1-418, looked up)
# chain: B1 chain with K11Y, Y383D
# modifications: 3,5-difluorotyrosine (F2Y) at 11
# notes: β-arrestin-1, bovine, full-length cDNA in pET22b, amber codon at K11 read as F2Y; source: E. coli BL21 (DE3) with pEVOL-F2YRS and F2Y in the medium, purified (Ni-NTA, gel filtration)
# B8: β-arrestin-1-F388-F2Y (natural protein, bovine, UniProt P17870 1-418, looked up)
# chain: B1 chain with Y383D, F388Y
# modifications: 3,5-difluorotyrosine (F2Y) at 388
# notes: β-arrestin-1, bovine, full-length cDNA in pET22b, amber codon at F388 read as F2Y; source: E. coli BL21 (DE3) with pEVOL-F2YRS and F2Y in the medium, purified (Ni-NTA, gel filtration)
# B9: β-arrestin-1-F277-F2Y (natural protein, bovine, UniProt P17870 1-418, looked up)
# chain: B1 chain with F277Y, Y383D
# modifications: 3,5-difluorotyrosine (F2Y) at 277
# notes: β-arrestin-1, bovine, full-length cDNA in pET22b, amber codon at F277 read as F2Y; also called F2Y-F277; source: E. coli BL21 (DE3) with pEVOL-F2YRS and F2Y in the medium, purified (Ni-NTA, gel filtration)
# B10: β-arrestin-1-N375-F2Y (natural protein, bovine, UniProt P17870 1-418, looked up)
# chain: B1 chain with N375Y, Y383D
# modifications: 3,5-difluorotyrosine (F2Y) at 375
# notes: β-arrestin-1, bovine, full-length cDNA in pET22b, amber codon at N375 read as F2Y; also called F2Y-N375; source: E. coli BL21 (DE3) with pEVOL-F2YRS and F2Y in the medium, purified (Ni-NTA, gel filtration)
# B11: β-arrestin-1-T136-F2Y (natural protein, bovine, UniProt P17870 1-418, looked up)
# chain: B1 chain with T136Y, Y383D
# modifications: 3,5-difluorotyrosine (F2Y) at 136
# notes: β-arrestin-1, bovine, full-length cDNA in pET22b, amber codon at T136 read as F2Y; also called F2Y-T136; source: E. coli BL21 (DE3) with pEVOL-F2YRS and F2Y in the medium, purified (Ni-NTA, gel filtration)
# B12: β-arrestin-1-L338-F2Y (natural protein, bovine, UniProt P17870 1-418, looked up)
# chain: B1 chain with L338Y, Y383D
# modifications: 3,5-difluorotyrosine (F2Y) at 338
# notes: β-arrestin-1, bovine, full-length cDNA in pET22b, amber codon at L338 read as F2Y; also called F2Y-L338; source: E. coli BL21 (DE3) with pEVOL-F2YRS and F2Y in the medium, purified (Ni-NTA, gel filtration)
# B13: β-arrestin-1-V8-F2Y (natural protein, bovine, UniProt P17870 1-418, looked up)
# chain: B1 chain with V8Y, Y383D
# modifications: 3,5-difluorotyrosine (F2Y) at 8
# notes: β-arrestin-1, bovine, full-length cDNA in pET22b, amber codon at V8 read as F2Y; source: E. coli BL21 (DE3) with pEVOL-F2YRS and F2Y in the medium, purified (Ni-NTA, gel filtration)
# B14: β-arrestin-1 wild type (natural protein, bovine, UniProt P17870 1-418, looked up)
# chain: B1 chain with Y383D
# notes: β-arrestin-1, bovine, full-length wild-type cDNA in pET22b; also called β-arrestin-1-WT; WT; source: E. coli BL21, purified (Ni-NTA, Superdex 200)
# B15: β-arrestin-1 (bovine, full-length wild type, C-terminal His tag) (natural protein, UniProt P17870 1-418, looked up)
# chain: B1 chain with Y383D
# notes: β-arrestin-1, bovine, full-length wild-type cDNA in pET22b; also called native β-arrestin-1; wild-type β-arrestin-1; source: E. coli BL21, purified (Ni-NTA, Superdex 200)
# Target: T1, GST-clathrin 1–494
# Assay: pull-down; β-arrestin-1-F2Y mutants (300 nM) incubated with equal concentrations of GST-clathrin and V2R-phospho-peptide (V2Rpp), or without peptide; pulled down with GST beads; bound β-arrestin-1 detected by western blot with a β-arrestin-1 antibody
# Settings: both partners purified
row,binding result,Binder
1,binds,B1
2,binds,B2
3,binds,B3
4,binds,B4
5,binds,B5
6,binds,B6
7,binds,B7
8,binds,B8
9,binds,B9
10,binds,B10
11,binds,B11
12,binds,B12
13,binds,B13

# Target: T1, GST-clathrin 1–494
# Assay: pull-down; GST-clathrin pull-down of β-arrestin-1 with V2Rpp at protein:V2Rpp ratios 1:0, 1:0.03, 1:0.3, 1:3 and 1:9; western blot for β-arrestin-1, densitometry
# Settings: both partners purified
row,binding result,Binder
1,binds,B14

# Target: T2, GST-SRC3D (SRC-SH2-SH3-kinase-three domain) (chicken, UniProt P00523 87-531)
# T2 construct: c-SRC, chicken, residues 87-531, containing SH3, SH2 and catalytic domains; source: E. coli BL21, purified (glutathione-Sepharose 4B, eluted with GSH); not shown: GST, N-terminal, kept
# Assay: pull-down; GST pull-down; 300 nM β-arrestin-1 first mixed with phosphopeptide (equal concentration) 30 min at room temperature in 20 mM Tris-HCl pH 8.0, 150 mM NaCl, 2 mM EDTA, 1 mM DTT; then 10 μM GST-clathrin or GST-SRC 1 h; GST beads 2 h at 4 °C; blot with a β-arrestin-1 antibody
# Settings: both partners purified
row,binding result,Binder
1,binds,B15
